In patent publication US12486514B2, “Method to specifically stimulate survival and expansion of genetically-modified immune cells” (National University of Singapore, priority 2018, dated 2025):

Key:
[1] = system: STAT5 Y647; assay: Epo signaling: STAT5 phosphorylation by flow cytometry in transduced T cells; type: cell-based, human; details: for Epo signaling (pSTAT5) after JAK inhibitor: concentration that abrogated IL-2 signal
Experimental: To detect Epo signaling, cells were incubated in cytokine-free media for 2 hours before stimulated with Epo (0.01-10 IU/mL) at 37° C. for 15 minutes to 24 hours. In some experiments, cells were treated with 0.1-10 μM of ruxolitinib (Selleckchem) or 0.5-5 nM tofacitinib (Santa Cruz Biotechnology, Santa Cruz, CA) for 1 hour prior to Epo stimulation. […] In some experiments, the effects of human Epo were compared to those of murine Epo (Biolegend, San Diego, CA).

[2] = system: CD19+ Nalm6 ALL cells; assay: Xenograft: Nalm6-luciferase cells followed 2 days later by EpoRm-CAR T cells, with or without Epo; type: in vivo, NSG mice; details: 100 IU Epo i.p. 3 times a week for 2 weeks
Experimental: In another model to test anti-leukemic activity of T cells, Nalm6 cells transduced with luciferase were injected i.v. (5×10^5 cells per mouse), followed 2 days later by T cells expressing EpoRm-CAR (2×10^7 cells per mouse, i.v.), while control mice received no T cells; some mice received Epo (100 IU) 3 times per week i.p. Tumor cell load was determined with the Xenogen IVIS-200 System (Perkin Elmer, Waltham, MA) after injecting aqueous D-luciferin potassium salt (150 μg/g body weight; Perkin Elmer) i.p. Luminescence was analyzed with Living Image 3.0 software. Mice were euthanized when the luminescence reached 1×10^10 photons per second, or earlier if there were physical signs warranting euthanasia.

[3] = system: Jurkat cells; assay: Jurkat cell growth curves; type: cell-based, human
[4] = system: T lymphocytes; assay: T cell survival/recovery in culture with or without Epo and IL-2; type: cell-based, human
Experimental: To assess cell survival, T cells were cultured in absence of exogenous cytokines, with or without Epo (4-10 IU/mL) in a flat bottom 96-well or 24-well plate (Cellstar). For cell proliferation, T cells were co-cultured with target cells (OP-1 cells) at 1:1 effector-to-target (E:T) ratio in a flat bottom 96-well plate; Epo (10 IU/mL) was added every two days. Target cells, irradiated (100 Gy) or treated with Streck cell preservative (Streck Laboratories, Omaha, NE) to inhibit growth, were added at the beginning of the cultures, and every 7 days thereafter. In some experiments, low dose (10 IU/mL) or high dose (100 IU/mL) IL-2 was added to the culture as well. The number of GFP+ T cells was measured by flow cytometry.

[5] = system: Epo; assay: Binding of biotinylated Epo to transduced Jurkat cells
Source text: Biotinylated Epo was visualized with streptavidin-PE (Jackson ImmunoResearch).

[6] = system: T lymphocytes; assay: Cell cycle analysis (EdU DNA synthesis) after Epo stimulation; type: cell-based, human; details: exposure to Epo for 24 hours
Experimental: To determine the effect of Epo on cell cycle, cells were cultured in cytokine-free media for 3 days followed by stimulation with 10 IU/mL of Epo for 1 day. DNA synthesis was measured by Click-iT EdU AF647 Flow Cytometry Assay Kit (Thermo Fisher Scientific), and DNA content was measured with FxCycle Violet Stain (Thermo Fisher Scientific).

[7] = EpoRm-CAR T cells, Epo 10 IU/mL

N#CC[C@H](C1CCCC1)n1cc(-c2ncnc3[nH]ccc23)cn1 [ruxolitinib, reference compound]
Epo signaling (pSTAT5) after JAK inhibitor [1, 7]: no effect

C[C@@H]1CCN(C(=O)CC#N)C[C@@H]1N(C)c1ncnc2[nH]ccc12 [tofacitinib, reference compound]
Epo signaling (pSTAT5) after JAK inhibitor [1, 7]: no effect
STAT5 Y647 phosphorylation caused by IL-2 after JAK inhibitor ([1]; EpoRm-CAR T cells, IL-2 100 IU/mL): completely abrogated

Epo: recombinant human Epo (Thermo Fisher Scientific), glycoprotein cytokine
pSTAT5 levels induced ([1]; EpoRm-CAR T cells, 1 IU/mL of Epo vs 50 IU/mL IL-2): significantly higher
effect of Epo injection on anti-leukemic activity [2]: did not affect the anti-leukemic activity

B1: EpoR: wild-type human erythropoietin receptor (SEQ ID NO: 2) expressed in T cells by MSCV retroviral transduction (protein)
chain: MDHLGASLWPQVGSLCLLLAGAAWAPPPNLPDPKFESKAALLAARGPEELLCFTERLEDLVCFWEEAASAGVGPGNYSFSYQLEDEPWKLCRLHQAPTARGAVRFWCSLPTADTSSFVPLELRVTAASGAPRYHRVIHINEVVLLDAPVGLVARLADESGHVVLRWLPPPETPMTSHIRYEVDVSAGNGAGSVQRVEILEGRTECVLSNLRGRTRYTFAVRARMAEPSFGGFWSAWSEPVSLLTPSDLDPLILTLSLILVVILVLLTVLALLSHRRALKQKIWPGIPSPESEFEGLFTTHKGNFQLWLYQNDGCLWWSPCTPFTEDPPASLEVLSERCWGTMQAVEPGTDDEGPLLEPVGSEHAQDTYLVLDKWLLPRNPPSEDLPGPGGSVDIVAMDEGSEASSCSSALASKPSPEGASAASFEYTILDPSSQLLRPWTLCPELPPTPPHLKYLYLVVSDSGISTDYSSGDSQGAQGGLSDGPYSNPYENSLIPAAEPLPPSYVACS
long-term cell growth of Jurkat cells [3]: does not adversely affect
survival in culture ([4]; Epo 4 IU/mL, absence of exogenous IL-2): supported their survival in culture
Epo binding [5]: could bind Epo

B2: EpoRm: truncated mutant Epo receptor, codon 439 TGG (Trp) changed to TAG (stop), SEQ ID NO: 6, expressed in T cells (protein)
chain: MDHLGASLWPQVGSLCLLLAGAAWAPPPNLPDPKFESKAALLAARGPEELLCFTERLEDLVCFWEEAASAGVGPGNYSFSYQLEDEPWKLCRLHQAPTARGAVRFWCSLPTADTSSFVPLELRVTAASGAPRYHRVIHINEVVLLDAPVGLVARLADESGHVVLRWLPPPETPMTSHIRYEVDVSAGNGAGSVQRVEILEGRTECVLSNLRGRTRYTFAVRARMAEPSFGGFWSAWSEPVSLLTPSDLDPLILTLSLILVVILVLLTVLALLSHRRALKQKIWPGIPSPESEFEGLFTTHKGNFQLWLYQNDGCLWWSPCTPFTEDPPASLEVLSERCWGTMQAVEPGTDDEGPLLEPVGSEHAQDTYLVLDKWLLPRNPPSEDLPGPGGSVDIVAMDEGSEASSCSSALASKPSPEGASAASFEYTILDPSSQLLRP
long-term cell growth of Jurkat cells [3]: does not adversely affect
functionality of EpoRm (pSTAT5) when expressed with CAR ([1]; Epo 10 IU/mL, 15 minutes): maintained
durability of STAT5 phosphorylation ([1]; Epo 10 IU/mL, time course): more durable
recovery of T cells ([4]; 7 days, Epo 10 IU/mL added to IL-2 100 IU/mL vs IL-2, 4 donors): significantly higher
expansion of T cells ([4]; 14 days, IL-2 100 IU/mL with Epo 10 IU/mL): performed better than EpoR cells
cell numbers in culture ([4]; Epo added, absence of IL-2): yielding higher cell numbers
DNA synthesis elicited by Epo [6]: stimulation was higher
